In PMC2880918:

How the values were obtained:
[1] = molecular target: Nucleosome Assembly Protein 1 (Nap1) (UniProt P25293); assay: FRET or BRET
[2] = molecular target: H2A–H2B dimer (Xenopus laevis) (UniProt P06897); assay: FRET or BRET

Row | Kd [1] [µM] | Kd [2] [µM] | Substance
1 | 0.011 |  | (H3K56ac-H4)2 tetramer (from UniProt P62799 1-103) (complex)
2 |  | 0.035 | tetrasome with the fluorescent label on H4 (from UniProt P62799 1-103) (complex)
